Measurements from patent publication US20190127468A1.
“And” between values parts separate entries of the source, which are not always exact repeats. Equal values may be shown once. Blank lines part the entries; values can stand above or below the substance they belong to.

Experiments:
[1] = molecular target: human CTLA4 in cells of Ctla4 h/h knock-in mice (human) (UniProt P16410); experiment: flow cytometry, intracellular staining of CTLA4 in spleen cells of Ctla4 h/h mice, gated on CD3+CD4+
[2] = molecular target: mouse CTLA4 in cells of Ctla4 m/m (WT) mice (mouse) (UniProt P09793); experiment: flow cytometry, intracellular staining of CTLA4 in spleen cells of Ctla4 m/m mice, gated on CD3+CD4+
[3] = molecular target: mouse CTLA4-Fc fusion protein (mouse) (UniProt P09793); experiment: blocking ELISA: plate B7-1, biotinylated mouse CTLA4-Fc with the antibody, HRP-streptavidin; blocked ligand B7-1
[4] = molecular target: mouse CTLA4-Fc fusion protein (mouse) (UniProt P09793); experiment: blocking ELISA: plate B7-2, biotinylated mouse CTLA4-Fc with the antibody, HRP-streptavidin; blocked ligand B7-2
[5] = molecular target: mouse CTLA4 in cells of Ctla4 m/m (WT) mice (mouse) (UniProt P09793); experiment: cell-based or functional assay
[6] = molecular target: Control IgG1-Fc (human) [IgG part: P01857]; experiment: ELISA on coated target; binder 10 ng/ml
[7] = molecular target: Control IgG1-Fc (human) [IgG part: P01857]; experiment: ELISA on coated target; binder 100 ng/ml
[8] = molecular target: Control IgG1-Fc (human) [IgG part: P01857]; experiment: ELISA on coated target; binder 1000 ng/ml
[9] = molecular target: Control IgG1-Fc (human) [IgG part: P01857]; experiment: ELISA on coated target; binder 0 (background)
[10] = molecular target: CTLA-4Fc mutant M11 (AA103-106, YLGI>fcGm) (human); experiment: ELISA, plate-coated CTLA-4Fc protein, biotinylated B7-1 Ig at 1 ug/ml, HRP-streptavidin
[11] = molecular target: CTLA-4Fc mutant M11 (AA103-106, YLGI>fcGm) (human); experiment: ELISA, plate-coated CTLA-4Fc protein, biotinylated B7-1 Ig at 10 ng/ml, HRP-streptavidin
[12] = molecular target: CTLA-4Fc mutant M11 (AA103-106, YLGI>fcGm) (human); experiment: ELISA, plate-coated CTLA-4Fc protein, biotinylated B7-1 Ig at 0 (blank), HRP-streptavidin
[13] = molecular target: CTLA-4Fc mutant M11 (AA103-106, YLGI>fcGm) (human); experiment: ELISA, plate-coated CTLA-4Fc protein, biotinylated B7-1 Ig at 100 ng/ml, HRP-streptavidin

Sequence of CTLA-4Fc mutant M11 (AA103-106, YLGI>fcGm) (human) (chain, as listed by the source mutant limits assumed): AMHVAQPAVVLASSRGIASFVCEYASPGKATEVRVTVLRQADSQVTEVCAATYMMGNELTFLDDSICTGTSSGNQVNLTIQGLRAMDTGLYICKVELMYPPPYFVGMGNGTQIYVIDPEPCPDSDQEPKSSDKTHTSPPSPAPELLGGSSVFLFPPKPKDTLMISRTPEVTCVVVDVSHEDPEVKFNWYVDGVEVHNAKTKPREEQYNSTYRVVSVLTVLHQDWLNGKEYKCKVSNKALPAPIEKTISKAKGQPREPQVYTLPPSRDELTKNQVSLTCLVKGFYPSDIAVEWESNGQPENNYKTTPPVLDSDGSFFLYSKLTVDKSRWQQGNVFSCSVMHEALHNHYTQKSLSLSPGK
Sequence of human CTLA4 in cells of Ctla4 h/h knock-in mice (human) (P16410 36-223): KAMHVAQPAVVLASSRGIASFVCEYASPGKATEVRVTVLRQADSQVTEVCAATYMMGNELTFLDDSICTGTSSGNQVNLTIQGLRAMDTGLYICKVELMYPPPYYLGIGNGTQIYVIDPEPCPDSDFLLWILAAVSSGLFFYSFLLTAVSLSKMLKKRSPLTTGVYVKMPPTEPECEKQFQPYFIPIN
Sequence of anti-mouse CTLA4 mAb 9D9 (antibody) (light): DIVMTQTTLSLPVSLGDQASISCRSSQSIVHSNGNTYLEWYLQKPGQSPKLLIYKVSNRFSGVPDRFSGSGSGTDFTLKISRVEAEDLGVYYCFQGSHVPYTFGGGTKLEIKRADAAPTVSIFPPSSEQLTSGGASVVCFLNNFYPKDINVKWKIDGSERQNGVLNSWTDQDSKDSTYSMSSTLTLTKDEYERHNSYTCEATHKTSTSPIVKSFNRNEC
Sequence of anti-mouse CTLA4 mAb 9D9 (antibody) (heavy): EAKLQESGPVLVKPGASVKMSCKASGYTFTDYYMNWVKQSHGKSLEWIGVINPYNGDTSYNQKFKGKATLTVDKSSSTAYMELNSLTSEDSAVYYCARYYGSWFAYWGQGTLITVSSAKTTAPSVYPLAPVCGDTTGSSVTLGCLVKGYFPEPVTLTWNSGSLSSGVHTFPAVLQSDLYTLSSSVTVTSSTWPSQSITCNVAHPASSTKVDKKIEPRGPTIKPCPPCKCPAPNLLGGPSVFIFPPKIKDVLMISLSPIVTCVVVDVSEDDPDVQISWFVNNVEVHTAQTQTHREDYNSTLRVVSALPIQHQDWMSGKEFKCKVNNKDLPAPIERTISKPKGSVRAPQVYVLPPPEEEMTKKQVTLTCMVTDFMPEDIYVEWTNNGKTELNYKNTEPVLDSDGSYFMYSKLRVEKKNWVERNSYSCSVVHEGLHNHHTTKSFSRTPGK

- number over the gate (FoxP3-positive, 4F10-stained) among CD3+CD4+ splenocytes [1]: 0.107
- number over the gate (FoxP3-positive, 4F10-stained) among CD3+CD4+ splenocytes [2]: 9.52
- IC50 (read off the curve) [3]: 1 µg/mL
- IC50 (read off the curve) [4]: 0.3 µg/mL
Substance: anti-mouse CTLA4 mAb 4F10 (antibody)

- B7-1 level on CD11c hi DC of WT mice 24 h after 500 µg antibody [5]: 15%
Substance: anti-mouse CTLA4 mAb 9D9 (antibody)

- OD450 [6]: 0.201 OD and 0.182 OD
- OD450 [7]: 0.315 OD and 0.326 OD
- OD450 [8]: 1.39 OD and 1.48 OD
- OD450 [9]: 0.198 OD and 0.184 OD
Substance: chimeric L3D10 antibody

- OD450 [10]: 3.05 OD450 and 3.16 OD450
- OD450 [11]: 0.22 OD450 and 0.217 OD450
- OD450 [12]: 0.174 OD450 and 0.163 OD450
- OD450 [13]: 0.884 OD450 and 1.04 OD450
Substance: human B7-1 Fc fusion protein (from UniProt P33681 35-242)
